Test system: Streptococcus pyogenes ATCC #19615
Test: LF/GMP assay, viable plate count (pour plate) of broth culture
Type: cell-based
Set-up: key to MIBC: NCF: No Effective Concentration Found
Conditions: 35° C.; for Colony Counts: viable plate count
Method: Bacterial strains used in this study were Pseudomonas aeruginosa ATCC #27853, Streptococcus mutans ATCC #33535, Streptococcus pyogenes ATCC #19615, and Actinobacillus haemophilus ATCC #43717 and an oral swab from a healthy adult. Bacteria were grown on blood/BHT media (Brain Heart Infusion Agar with protease peptone, sodium chloride, glucose, di-sodium phosphate, and agar, Oxoid, Hampshire England, Sheep's Blood) in the presence of 5% CO2 at 35° C. […] The 0.5 McFarland value is approximately equivalent to 1.0×10^8 organisms. One ml of the appropriate bacterial dilution was taken using a sterile pipette and introduced into 8 ml of sterilized BHI broth. […] By pipette, 9 ml of broth was placed into medium test tubes as means of a control and 8 ml test tubes were prepared for the concentration tests). […] This solution was filtered through a 0.45 μm filter. […] Example for calculating 2,500 ppm dilution (1,000 ppm=0.1%): [formula] [formula] [formula] To study the kinetics of LF/GMP binding, each strain of bacteria was taken separately with a sterile pipette and placed into an 8 ml BHI broth test tube, vortexed, and incubated in the presence of 1 ml of LF or GMP for 18-24 hours at 35° C. with 5% CO2. In the combination procedure, 0.5 ml of both LF and […] were taken as 1 ml inoculations. This technique was used to determine the density of living (viable) cells in inoculated broth cultures. It involves plating a bacterial sample and counting the resulting colonies after incubation. A serial dilution of the original broth was taken prior to plating. The serial dilution is necessary to reduce the density of organisms in order to create countable plates. Only plates containing between 25 and 250 colonies are considered countable. Cell densities are traditionally recorded as CFU (colony forming unit)/ml. […] Formula: [formula] The assays required the use of a pour plate technique. The pour plate technique adds a step to the conventional serial dilution. The 1 ml of dilution is added to a warm emulsion of dilute nutrient (BHI) agar to produce an agar overlay in the petri plates. After incubation, the bacterial growth covers the entire plate but individual cellular movement has been restricted by the soft agar overlay. Each colony formed is assumed to have originated from a single CFU. The plates were gently mixed, inverted, and incubated for 18-24 hour at 35° C. Using a control (one broth tube inoculated with a bacterial strain, but no LF), the effectiveness of LF was examined. Each test tube containing a specified amount of LF (50, 100, 250, 500, 1,000 ppm and 3000 ppm) was diluted and plates were poured. After incubating the plates for 24 hours at 35° C. with 5% CO2 (the normal conditions of an oral cavity), the bacterial recovery count was taken and the results were compared to the control. A. haemophilus, S. mutans, S. pyrogenes and an oral culture were tested at 35° C. Pseudomonas aeruginosa was tested at both room temperature and 35° C. with 5% CO2. This was done because P. aeruginosa is not strictly an oral pathogen. It is commonly found in the environment in various conditions. It can be found in the environment and oral intake can cause inflammation in the oral cavity. Most normal oral bacteria are only found in the mouth and are not taken in from outside factors. Therefore, P. aeruginosa is a threat in both temperature settings. Table 1 depicts the minimum inhibitor concentration (MBEC) for each of the bacterial strains at 35° C. S. pyogenes and the oral culture were not effected by LF at any tested concentration. […] (see Table 2).

B1: LF: Bovine lactoferrin, iron-binding glycoprotein purified from milk, provided by DMV International (protein, UniProt P24627 20-708, looked up)
Lactotransferrin: APRKNVRWCTISQPEWFKCRRWQWRMKKLGAPSITCVRRAFALECIRAIAEKKADAVTLDGGMVFEAGRDPYKLRPVAAEIYGTKESPQTHYYAVAVVKKGSNFQLDQLQGRKSCHTGLGRSAGWIIPMGILRPYLSWTESLEPLQGAVAKFFSASCVPCIDRQAYPNLCQLCKGEGENQCACSSREPYFGYSGAFKCLQDGAGDVAFVKETTVFENLPEKADRDQYELLCLNNSRAPVDAFKECHLAQVPSHAVVARSVDGKEDLIWKLLSKAQEKFGKNKSRSFQLFGSPPGQRDLLFKDSALGFLRIPSKVDSALYLGSRYLTTLKNLRETAEEVKARYTRVVWCAVGPEEQKKCQQWSQQSGQNVTCATASTTDDCIVLVLKGEADALNLDGGYIYTAGKCGLVPVLAENRKSSKHSSLDCVLRPTEGYLAVAVVKKANEGLTWNSLKDKKSCHTAVDRTAGWNIPMGLIVNQTGSCAFDEFFSQSCAPGADPKSRLCALCAGDDQGLDKCVPNSKEKYYGYTGAFRCLAEDVGDVAFVKNDTVWENTNGESTADWAKNLNREDFRLLCLDGTRKPVTEAQSCHLAVAPNHAVVSRSDRAAHVKQVLLHQQALFGKNGKNCPDKFCLFKSETKNLLFNDNTECLAKLGGRPTYEEYLGTEYVTAIANLKKCSTSPLLEACAFLTR
Colony Counts (50 ppm, 24 h): 5.8 × 10^7
Colony Counts (100 ppm, 24 h): 1.5 × 10^7
Colony Counts (500 ppm, 24 h): 7.8 × 10^7
Colony Counts (3,000 ppm, 24 h): 1.7 × 10^8
Total Log Reduction (Lactoferrin/GMP 250/0 ppm (LF alone)): 0 log
Total Log Reduction (Lactoferrin/GMP 3,000/0 ppm (LF alone)): 0 log
# Log Reductions (at the MIBC, vs control): 0 log
effect on growth (in words) (single agent, any tested concentration): not effected
MIBC (single agent, 24 h, 5% CO2): NCF

Source: patent US6890900B2, “Methods for treating or preventing diseases of the oral cavity” (Campina B.V., priority 2001, dated 2005)
